Reference: paper doi:10.1101/676627 (bioRxiv, 2019)
Residue numbers refer to the chain shown, from its start. Names and notes keep the numbering of the source.

B1: ROCext surface engineered mutant (KA), K1460A and K1463A (domain or fragment, human, UniProt Q5S007 1329-1520, looked up)
chain: AVPYNRMKLMIVGNTGSGKTTLLQQLMKTKKSDLGMQSATVGIDVKDWPIQIRDKRKRDLVLNVWDFAGREEFYSTHPHFMTQRALYLAVYDLSKGQAEVDAMKPWLFNIKARASSSPVILVGTHLDVSDEAQRAACMSKITKELLNKRGFPAIRDYHFVNATEESDALAKLRKTIINESLNFKIRDQLVVG
B2: ROCext, wild-type GTPase (ROC) domain of human LRRK2, residues 1329-1520 (domain or fragment, UniProt Q5S007 1329-1520, looked up)
chain: B1 chain with A132K, A135K

What was measured:
[1] = biological target: the molecule itself; assay: crystal structure
[2] = biological target: the molecule itself; assay: SEC-MALS

Protein	stoichiometry N [1]	stoichiometry N [2]
B1	2	–
B2	–	2
